Data set [1] has as its system T1, 18-mer peptide PQLPYPQPQLPYPQPQPF
T1 sequence: PQLPYPQPQLPYPQPQPF

Data set [2] deals with T2, 33-mer peptide LQLQPFPQPQLPYPQPQLPYPQPQLPYPQPQPF from α2-gliadin.
T2 sequence: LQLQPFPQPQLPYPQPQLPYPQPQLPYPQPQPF

Regarding “elongation factor G from Streptococcus thermophilus (strain P02638 F9 = DN_001343, CNCM I-2776), purified from culture supernatant”, in data set [1], the “Km (protease activity against 18-mer peptide)” value is given as 0.794 mg 18-mer peptide/m1 and the Vmax (protease activity against 18-mer peptide) (mg 18-mer peptide/ml) amounted to 1.5. For the same substance, in data set [2], the “in vitro degradation of the peptide (protease activity)” value is listed as “The protease able to degrade in vitro the 33-mer as well as the 18-mer peptide”.

As to “elongation factor Tu from Lactobacillus casei (strain P02503 A1 = DN_114001, CNCM I-1518), purified from culture supernatant”, in data set [1], the “Km (protease activity against 18-mer peptide)” value worked out at 0.643 mg 18-mer peptide/ml and the Vmax (protease activity against 18-mer peptide) (mg 18-mer peptide/ml) was 1.27. Moreover, the “in vitro degradation of the peptide (protease activity)” value in data set [2] is “The protease able to degrade in vitro the 33-mer as well as the 18-mer peptide”.

For the origin of these results see patent US20170145379.
